The record followed here is the RNAGym collection of RNA variant scans (doi:10.1073/pnas.2313332121).

Variants at the floor of the assay were thinned out. Where only a bound is given, the exact number is not on record here.

To fix the notation:
B1: TPR 5TU (parent)
chain: GGAUCUUCUCGAUCUAACAAAAAAGACAAAUCUGCCACAAAGCUUGAGAGCAUCUUCGGAUGCAGAGGCGGCAGCCUUCGGUGGCGCGAUAGCGCCAACGUUCUCAACUAUGACACGCAAAACGCGUGCUCCGUUGAAUGGAGUUUAUCAUG

The variants in the data set derive from B1. Description: polymerase ribozyme fitness, log enrichment relative to wild type (log ratio); higher = more active; in vitro selection for triplet polymerase activity. The essentials:
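For each subunit of a heterodimeric triplet polymerase ribozyme, a mutant library was built by PCR and transcribed, then taken through a single in vitro selection round in triplicate. Selection involved annealing to a biotinylated primer, the partner subunit and triplets, incubation frozen at −7 °C, gel excision of extended constructs, capture on streptavidin beads and RT-PCR. Genotypes were retained after Illumina sequencing of inputs and outputs only with ≥10 input reads and ≥1 read in each output. Fitness is defined as the logarithm of a genotype's enrichment relative to wild-type enrichment, using inverse-variance-weighted averages across replicates, with the logarithm taken to base 2.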
Consider GGAUCUUCUCGAUGUAACAAAAGAGACAAAUCUGCCACAAAGCUUGAGAGCAUCUUCGGAUGCAGAGGCGGCAGCCUUCGGUGGCGCAAUAGCGCCAACGUUCUCAACUAUGACACGCAAAACGCGUGCUCCGUUGAAUGGAGUUUAUCAUG [C14G A23G G88A], for which the “polymerase ribozyme fitness (log ratio)” value is not above -4.2.
In the case of GGAUCUUCUCGAUGUAACAAUAAAGACAAAUCUGCCACAAAGCUUGAGAGCAUCUUCGCAUGCAGAGGCGGCAGCCUUCGGUGGCGCGAUAGCACCAACGGUCUCAACUAUGCCACGCAAAACGCGUGCUCCGUUGAAUGGAGUUUAUCAUG [C14G A21U G59C G94A U101G A113C], the “polymerase ribozyme fitness (log ratio)” value was not above -4.2.
The same measure for GGAUCUUCUCGAUGUAACAAAAAAGUGAAAUCUGACACAAAGCUUGAGAGCCUCUUCGGAUGCAGAGGCGGCAGCCUUCGGUGGCGCGAUGGCGCCAACGUUCUCAGCUAUGACACGCAAAACGCUUGCACCGUUGAAUGGAGUUUAUCAUG [C14G A26U C27G C35A A52C A91G A107G G126U U130A]: not above -4.2; for GGAUCUUCUCGAUGUAACAAAGAAGACAAAUCUGCCACAAAGCUUGAGAGCAUUUUCGGAUGCAGAGGCUGCAGCCUUCGGUGGCGCGAUAGCGUAAACGUUCUCAACUAUGAUACGCAAAACGCGUGCUCCGUUGCAUGGAGUUUAUCAUG [C14G A22G C54U G70U C95U C96A C114U A137C]: not above -4.2; for GGAUCUUCUCGAUGUAACAAAAACGACAAAUCUGCCACAAAGCUUGAGAGCAUCUUCGGGUACACAGGCGGCAGCCUUCGGUGGCGUGAUAGCGCCAACGUUCUCAACUAUGACACGCAAAACGCGUGCUCCGUUGAAUGGAGUGUAUCAUG [C14G A24C A60G G62A G65C C87U U145G]: not above -4.2.
The same measure for GGAUCUUCUCGAUGUAACAAACAAGACAAAUCUGCCACCAAGCUUGAGAGCGUCUUCGGAUGCAGAGGCGGCAGGCUUCGGGGGCGCGAUAGCGCCAACGUUCUCAACUAUGACACGCAAAACGCGUGCUCCGUUGAAUUGAGUUUAUCAUG [C14G A22C A39C A52G C75G U82G G140U]: not above -4.2; for GGAUCUUCUCGAUGUAACAAAAAAGUCAAAUCUGCCACAAAGCUUGAGAGCAUCUUCCGAUGCAGAGGCGGCAGCCUUCGGUGGCGCGUUAGCGCCAACGUUCUCAACUAUGACACUCACAACGAGUGCUCCGUUGAAUGGAGUUUAUCAUG [C14G A26U G58C A89U G117U A120C C125A]: not above -4.2; for GGAUCUUCUCGAUGUAACAAAUAAGGCCAAUCUGCCACAAAGCUUGAGAGCAUCUUCGGAUGCAGAGGCGGCAGCCUUCGGUGGCGCGAUAGCGCCAACGUUCUCAACUAUGACACGCAAAACGCGUGCUCCGAUGAAUGGAGUUUAUCAUG [C14G A22U A26G A28C U134A]: not above -4.2.
For GGAUCUUCUCGAUGUAACAAAAUAGACCAAUCUGCCACAGACCUUGAGAGCAUCUUCGGAUGCAGAGGCGGCAGCCUUCGGUGGCGCGUUAGCGCCAACGUUCUCAACUAUGACAGGCAAAACCCGUGCUCCGGUGAAUGGAGUUUAUCAUG [C14G A23U A28C A40G G42C A89U C116G G124C U134G] the value was not above -4.2.
For the variant GGAUCUUCUCGAUGUAACAAACAAGACAAAUCUGCCACAAAGCUUGAGAGCUUCUUCGGAUGCAGAGGCGGCAGCCUUCGGUGGCGCGAUAGCGCAUACGUUCUCAACUAUGACACUCAAAACGCGUGCUCCGUUGAAUGGAGUUUAUCAUG [C14G A22C A52U C96A A97U G117U], the “polymerase ribozyme fitness (log ratio)” value was not above -4.2.
The same measure for GGAUCUUCUCGAUGUAACAAAAACGACAAAUCUGCCACAAAGCUUGAGAGCAUCUUCGGAUGCAGAGGCGGCAGCCUUCGGUGGCGCGAUAGCGCCAACGUUCUCAACUAUGACACGCAAAACGCGUGCUCCGUUGAAUGGAGUUUAUCAUG [C14G A24C]: -3.63; for GGAUCUUCUCGAUGUAACAAAAAUGACAAAUCUGCCACAAAGCUUGAGAGCAUCUUCGGAUGCAGAGGCGGCAGCCUUCGGUGGCGCGAUAGCGCCAACGUUCUCAACUAUGACACGCAAAACGCGUGCUCCGUUGAAUGGAGUUUAUCAUG [C14G A24U]: -3.18; for GGAUCUUCUCGAUGUAACAAAAAUGACUAAUCUGCCACAAAGUUUGAGAGCAUCUUCGGAUGCAGAGGCGGCGGCCUUCGGCGGCGCGAUAGCGCCAACGUUGUCAACUAUGACACGCAAAACGCGUGCUCCGUUAAAUGGAGUUCAUCAUG [C14G A24U A28U C43U A73G U82C C103G G136A U146C]: not above -4.2.
The same measure for GGAUCUUCUCGAUGUAACAAAAAAGUCAAUUCUGCCACAAAGCUUGAGAGCAUCUUCGGAUGCAGAGGCGGCAGACUUCGGUGGCGCGAUAGUGCCAACGUUCUCAACUAUGACACGCAAAACGCGUGCUCCGUUGAAUGAAGUUUAGCAGG [C14G A26U A30U C75A C93U G141A U148G U151G]: not above -4.2; for GGAUCUUCUCGAUGUAACAAAAAAGGCAAAUCUGCCACAAAGCUUGAGAGCAUCUUCUGAUGCAGAGGCGGUAGCCUUCGGUGGCGCGAUAGCGCCAACGUUCUCAACUAUGACACGCAAAGCGCGUGCUCCGUUGAAUGGAGUUUAUCAUG [C14G A26G G58U C72U A122G]: not above -4.2.
For GGAUCUUCUCGAUGUAACAAAAGAGACAAAUCUGCCACAAAGCUUGAGAGCAUCUUCGGAUGCAGAGGCGGCGGCCUUCGGUGUCGCGAUAGCGCCAACGUUCUCAACUAUGACACGCAAAUCGCGUGCUCCGUUGAAUGGAGUUUAUCAUG [C14G A23G A73G G84U A122U] the value was not above -4.2.
Take GGAUCUUCUCGAUGUAACAAUAAAGACAAAUCUGCCACAAAGCUUGAGAGCGUCUUCGGAUGCAGAGGCGGCAGCCUUCGGUGGAGCGAUAGCGCCAACGUUCUCAACUAUGACACGGAAAACGCGUACUCCGUUGAAUGCAGUUUAUCAUG [C14G A21U A52G C85A C118G G128A G141C]: the “polymerase ribozyme fitness (log ratio)” value is not above -4.2.
GGAUCUUCUCGAUGUAACAAAACAGACAAAUUUGCCACAAAGCUUGAGAGCAUCUUCGGAUGCAGAGGCGGCAGCCUUCGGUGGCGCGAUAGCGCUAACGUUCUCAACUAUGACACGCAAAACGCGUGCUCCGUUGAAUGGAGUUUAUCAUG [C14G A23C C32U C96U]: the “polymerase ribozyme fitness (log ratio)” value is -4.1.
Take GGAUCUUCUCGAUGUAACAAUAAAGACAAAUCUGCCACAAAGCUUGAGAGCAUCUUCGGUUGCAGAGGCGGCAGACGUCGGUGGCGCGUUAGCGACAACGUUCUCAACUAUGACACGCAAAACGCGUGCUCCGUUGAAUGGAGUUUAUCAUG [C14G A21U A60U C75A U77G A89U C95A]: the “polymerase ribozyme fitness (log ratio)” value was not above -4.2.
